1 substance from PMC3240717 can be followed below.

In the experiment the target is CD44-AFAP-110 complex (human (endogenous in MDA-MB-231)) (UniProt P16070). Nature of the experiment: radioligand binding.
UniProt P16070, sequence (P16070 21-742, chain 1 of 2): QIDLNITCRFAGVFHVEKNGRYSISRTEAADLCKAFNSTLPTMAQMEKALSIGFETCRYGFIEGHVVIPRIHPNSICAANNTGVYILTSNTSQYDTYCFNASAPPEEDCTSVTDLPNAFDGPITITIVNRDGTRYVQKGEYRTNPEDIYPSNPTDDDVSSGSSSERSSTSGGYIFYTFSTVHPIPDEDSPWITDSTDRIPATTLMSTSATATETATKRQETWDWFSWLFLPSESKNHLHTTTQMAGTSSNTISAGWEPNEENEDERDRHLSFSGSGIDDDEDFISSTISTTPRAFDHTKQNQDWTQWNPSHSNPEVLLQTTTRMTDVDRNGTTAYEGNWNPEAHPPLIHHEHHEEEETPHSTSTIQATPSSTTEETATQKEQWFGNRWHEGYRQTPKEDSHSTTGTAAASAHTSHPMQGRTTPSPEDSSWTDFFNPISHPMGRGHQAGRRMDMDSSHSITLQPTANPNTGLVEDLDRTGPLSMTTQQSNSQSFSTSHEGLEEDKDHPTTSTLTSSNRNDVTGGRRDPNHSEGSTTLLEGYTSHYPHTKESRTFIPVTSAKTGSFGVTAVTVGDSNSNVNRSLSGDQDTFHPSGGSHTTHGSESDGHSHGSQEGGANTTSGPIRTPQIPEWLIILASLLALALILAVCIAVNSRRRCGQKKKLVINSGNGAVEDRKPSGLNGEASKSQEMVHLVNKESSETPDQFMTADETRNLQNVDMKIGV
UniProt P16070, sequence (Q8N556 whole entry, chain 2 of 2, further chain): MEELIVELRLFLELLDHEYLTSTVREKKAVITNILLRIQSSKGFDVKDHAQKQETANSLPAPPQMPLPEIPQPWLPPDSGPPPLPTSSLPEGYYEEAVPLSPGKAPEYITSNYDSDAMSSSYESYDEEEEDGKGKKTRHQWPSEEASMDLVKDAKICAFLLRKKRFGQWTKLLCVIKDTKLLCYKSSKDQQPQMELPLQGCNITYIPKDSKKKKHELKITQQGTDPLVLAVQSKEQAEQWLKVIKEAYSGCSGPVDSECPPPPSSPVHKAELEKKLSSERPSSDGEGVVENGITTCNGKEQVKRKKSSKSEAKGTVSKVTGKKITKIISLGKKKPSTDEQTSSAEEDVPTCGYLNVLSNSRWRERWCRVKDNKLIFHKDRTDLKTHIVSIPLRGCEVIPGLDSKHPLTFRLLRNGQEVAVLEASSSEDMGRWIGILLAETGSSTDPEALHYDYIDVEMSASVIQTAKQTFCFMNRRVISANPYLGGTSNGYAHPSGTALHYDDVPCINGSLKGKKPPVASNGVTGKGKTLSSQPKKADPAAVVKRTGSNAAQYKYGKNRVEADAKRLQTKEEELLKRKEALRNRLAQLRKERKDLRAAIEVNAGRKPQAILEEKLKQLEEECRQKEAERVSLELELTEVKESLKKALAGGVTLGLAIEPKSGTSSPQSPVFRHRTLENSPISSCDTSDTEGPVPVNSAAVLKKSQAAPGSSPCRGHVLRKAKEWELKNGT

Turning to “filamentous actin (F-actin) (natural protein)”, the 125I-F-actin bound, cpm (cells: HA fragment (2-3 disaccharide) treatment) came to 11700 cpm; the 125I-F-actin bound, cpm (cells: HMW-HA treatment) turned out to be 13800 cpm; the 125I-F-actin bound, cpm (cells: LMW-HA treatment) came out at 38400 cpm; the 125I-F-actin bound, cpm (cells: anti-CD44 IgG + LMW-HA treatment) turned out to be 12500 cpm. Also, the 125I-F-actin bound, cpm (cells: no treatment, control) is 12700 cpm; the 125I-F-actin bound, cpm (cells: normal IgG + LMW-HA treatment) is 38000 cpm; the 125I-F-actin bound, cpm (cells: normal IgG + no HA treatment) worked out at 12500 cpm; the 125I-F-actin bound, cpm (cells: scrambled siRNA, HMW-HA treatment) was determined as 11500 cpm. The 125I-F-actin bound, cpm (cells: scrambled siRNA, LMW-HA treatment) turned out to be 31800 cpm and the 125I-F-actin bound, cpm (cells: scrambled siRNA, no treatment, control) was found to be 11000 cpm.
